Substrate: NC(=O)N1c2ccccc2C=Cc2ccccc21
Assay: Steady-state NADPH oxidation by CYP3A4 Nanodiscs with CPR
Assay type: biochemical, human
Conditions: other: at 30 µM PGS; at 200 µM CBZ; pH 7.4; 37.0 °C

B1: CYP3A4 (Homo sapiens; S18F) (protein)
chain: MALLLAVFLVLLYLYGTHSHGLFKKLGIPGPTPLPFLGNILSYHKGFCMFDMECHKKYGKVWGFYDGQQPVLAITDPDMIKTVLVKECYSVFTNRRPFGPVGFMKSAISIAEDEEWKRLRSLLSPTFTSGKLKEMVPIIAQYGDVLVRNLRREAETGKPVTLKDVFGAYSMDVITSTSFGVNIDSLNNPQDPFVENTKKLLRFDFLDPFFLSITVFPFLIPILEVLNICVFPREVTNFLRKSVKRMKESRLEDTQKHRVDFLQLMIDSQNSKETESHKALSDLELVAQSIIFIFAGYETTSSVLSFIMYELATHPDVQQKLQEEIDAVLPNKAPPTYDTVLQMEYLDMVVNETLRLFPIAMRLERVCKKDVEINGMFIPKGVVVMIPSYALHRDPKYWTEPEKFLPERFSKKNKDNIDPYIYTPFGSGPRNCIGMRFALMNMKLALIRVLQNFSFKPCKETQIPLKLSLGGLLQPEKPVVLKVESRDGTVSGA
kcat: 2.05 s⁻¹

Reference: paper PMC4757451
